Laboratory results reported in PMC3919171.

Assays:
[1] = target: collagen VI monomer with the murine collagen VI α3 chain (N9-C5) carrying the R1061Q mutation (mouse | human (endogenous in SaOS-2)); assay: non-reducing agarose/polyacrylamide composite gel electrophoresis with immunoblot; culture medium (4-14 days) and cell extracts of transfected SaOS-2 cells, SDS loading buffer with 2 M urea, non-reducing, 0.5% agarose/2.4% polyacrylamide; detected with an antibody against the α3 C terminus; sizes from purified collagen VI as a standard; monomers to tetramers
[2] = target: collagen VI monomer with the wild-type murine collagen VI α3 chain (N9-C5) (mouse | human (endogenous in SaOS-2)) (UniProt P12109); assay: as above

stoichiometry N [1]	stoichiometry N [2]	Substance
4		collagen VI monomer with the murine collagen VI α3 chain (N9-C5) carrying the R1061Q mutation (from UniProt P12109 20-1028; P12110 21-1019) (complex)
	4	collagen VI monomer with the wild-type murine collagen VI α3 chain (N9-C5) (from UniProt P12109 20-1028; P12110 21-1019) (complex)
